Measured values from patent US20180127502A1 (Memorial Sloan Kettering, published 2018).

Tests used:
human PD-1 monomer = human PD-1 monomer (human, UniProt Q15116 25-167, limits assumed); assay: ELISA on PD-1 monomer (FIG. 1)
Description: ET901 ScFv-Fc (mouse IgG1 Fc) served as the negative control.

[1] = target: T1, human PD-1 on human T cells (human, UniProt Q15116 25-288); assay: flow cytometry, 1 µg/ml antibody, human T cells overexpressing human PD-1, goat anti-human Ig FITC
T1 construct: whole, on cells; In the functional rows it is the PD-1 of the transduced human peripheral blood T cells; also called PD-1 T cells; human T cells modified to overexpress human PD-1
T1 sequence (Q15116 25-288): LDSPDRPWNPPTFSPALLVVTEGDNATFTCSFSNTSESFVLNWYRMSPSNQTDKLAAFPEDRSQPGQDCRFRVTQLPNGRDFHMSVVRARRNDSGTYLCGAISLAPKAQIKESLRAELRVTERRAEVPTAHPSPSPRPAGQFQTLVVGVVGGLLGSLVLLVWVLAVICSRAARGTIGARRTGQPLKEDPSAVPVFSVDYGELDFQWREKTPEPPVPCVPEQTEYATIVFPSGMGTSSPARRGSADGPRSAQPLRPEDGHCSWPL
Description: Flow cytometry was used to detect bound antibody using a goat anti-human Ig FITC conjugated antibody. […] Data shown is representative of one experiment.

Chain of human PD-1 monomer (Q15116 25-167 limits assumed): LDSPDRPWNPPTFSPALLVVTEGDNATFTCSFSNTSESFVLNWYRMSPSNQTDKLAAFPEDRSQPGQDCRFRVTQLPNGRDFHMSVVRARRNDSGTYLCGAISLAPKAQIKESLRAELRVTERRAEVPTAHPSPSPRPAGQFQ

| binding result (human PD-1 monomer) | percent of PD-1 human T cells bound [1] | Binder |
| --- | --- | --- |
| binds | – | anti-PD-1 scFv-Fc clone 23 (scFv linked to murine Fc) (Fc fusion, also called PD1-23; not shown: murine Fc (mouse IgG1a) domain) QAVLTQPPSMSEAPRQRVTISCSGSSSNIGNNAVNWYQQLPGKAPKLLIYYNDLLSSGVSDRFSGSKSGTSASLAISGLQSEDEADYYCAAWDDSVNGYVFGTGTKVTVLGGSRGGGGSGGGGSGGGGSEVQLVQSGAEVKKPGDSVKVSCKASGYTFTRFGFSWVRQAPGQGLEWMGWISVNNGNTKYAQKYQGRVTMTTDTSTSTAYMELRSLRSDDTAVYYCARYMYGRRDSWGQGTLVTVSS |
| binds | – | anti-PD-1 scFv-Fc clone 40 (scFv linked to murine Fc) (Fc fusion, also called PD-1-40; not shown: murine Fc (mouse IgG1a) domain) QSVLTQPPSASGTPGQRVTISCSGSRSNIGENTVNWYQQLPGTAPKLLIYSNNQRPSGVPDRFSGSKSGTSASLAISGLHSDDEADYFCAAWDDRLNGYVFGTGTKVTVLGGGGGSGGGGSGGGGSQVQLVQSGPEVKKPGASVKVSCKASGYTFTNYGFTWVRQAPGQGLEWMGWIGAQKGDTEYAQKFQGRVTMTTDTSTSTVYLELRSLRSDDTAVYYCARSQGVPFDSWGQGTLVTVSS |

Continued, binder first:

| Binder | binding result (human PD-1 monomer) | percent of PD-1 human T cells bound [1] |
| --- | --- | --- |
| anti-PD-1 scFv-Fc clone 26 (scFv linked to murine Fc) (Fc fusion, also called PD1-26; not shown: murine Fc (mouse IgG1a) domain) QSVLTQPPSVSVAPGKTARITCGGNNIGSKSVHWYQQKPGQAPVLVIYYDSDRPSGIPERFSGSNSGNTATLTISRVEAGDEADYYCQVWDNHSDVVFGGGTKLTVLGGGGGSGGGGSGGGGSQVQLVESGGGLVQPGGSLRLSCAASGYTRNKFSSYAMSWVRQAPGKGLEWVSGISGSGGTTYYADSVKGRFTISRDNSKNTQYLQLDSLRAEDTAVYYCARWYSSYYDVWGQGTLVTVSS | binds | – |
| anti-PD-1 clone 26 monoclonal antibody (antibody, V domains shown, also called Clone 26 mAb; ET130-26) VH: QVQLVESGGGLVQPGGSLRLSCAASGYTRNKFSSYAMSWVRQAPGKGLEWVSGISGSGGTTYYADSVKGRFTISRDNSKNTQYLQLDSLRAEDTAVYYCARWYSSYYDVWGQGTLVTVSS VL: QSVLTQPPSVSVAPGKTARITCGGNNIGSKSVHWYQQKPGQAPVLVIYYDSDRPSGIPERFSGSNSGNTATLTISRVEAGDEADYYCQVWDNHSDVVFGGGTKLTVLG | – | 78% |
| anti-PD-1 clone 27 monoclonal antibody (antibody, V domains shown, also called Clone 27 mAb; E27 mAb) VH: not shown VL: QSVLTQPPSVSVAPGKTARITCGGNNIGSKSVHWYQQRPGQAPVLVIYYDSDRPSGIPERFSGSNSGNTATLTISRVEAGDEADYYCQVWDSSSDYVFGIGTKVTVLG | – | 67% |
| anti-PD-1 clone 23 monoclonal antibody (antibody, V domains shown, also called Clone 23 mAb; ET130-23) VH: EVQLVQSGAEVKKPGDSVKVSCKASGYTFTRFGFSWVRQAPGQGLEWMGWISVNNGNTKYAQKYQGRVTMTTDTSTSTAYMELRSLRSDDTAVYYCARYMYGRRDSWGQGTLVTVSS VL: QAVLTQPPSMSEAPRQRVTISCSGSSSNIGNNAVNWYQQLPGKAPKLLIYYNDLLSSGVSDRFSGSKSGTSASLAISGLQSEDEADYYCAAWDDSVNGYVFGTGTKVTVLG | – | 51% |
